Test [1] addresses His-tagged TclI N-terminal domain (residues 1-85) (M. caseolyticus).
Test [2] deals with a tagged version of TclJ or TclN. Put plainly: pull-down; nickel copurification: TclI, TclJ and TclN all co-expressed in E. coli, one of them His6-tagged; lysate on Ni-NTA agarose beads, 4°C, 50 mM HEPES pH 7.8, 300 mM NaCl, 60 mM imidazole; SDS-PAGE with Coomassie stain.
In test [3] the target is N-terminally His-tagged TclI (M. caseolyticus). The experiment in a line: SEC; purified TclIJN complex (TclI, TclJ and TclN as a mixture); Yarra 1.8 μm X150 column, 100 mM sodium phosphate pH 6.8, 0.023% NaN3, 25 °C, 1 μg/μL. (In general: Size exclusion chromatography separates by hydrodynamic size, large species first.)

Experimental findings from article doi:10.1101/2023.10.23.563616 are described below.

In turn, “GST-TclE Δ18 leader truncation (peptide)” came in with a percentage of TclE peptides fully modified (six thiazoles) by LC-MS after co-expression of GST-TclE Δ18 with TclI, TclJ and TclN in E. coli in test [1] of 71.6%.

On to TclI (untagged) (natural protein), for which, in test [2], the stoichiometry N (TclI per tagged enzyme (densitometry)) lay in the range of 2 to 8.

With TclJ (untagged) (enzyme), the stoichiometry N (TclI per TclJ) in test [3] amounted to 2.

Consider TclN (untagged) (enzyme), for which the stoichiometry N (TclI per TclN) in test [3] came to 2.
